Laboratory results published in the Immune Epitope Database (IEDB).
Blank lines part the entries; values can stand above or below the sequence they belong to.

How the values were obtained:
[1] = biological target: HLA-C*03:03; assay: IEDB peptide-MHC binding, purified MHC/direct/fluorescence; filed as Kd, often an IC50 or EC50 that approximates it; ≥ and ≤ were set here for values at or beyond the usual limits of such assays
[2] = biological target: HLA-A*02:01; assay: IEDB peptide-MHC binding, purified MHC/competitive/fluorescence; filed as Kd, often an IC50 or EC50 that approximates it; ≥ and ≤ were set here for values at or beyond the usual limits of such assays
[3] = biological target: HLA-A*02:16; assay: as above
[4] = biological target: HLA-C*07:02; assay: IEDB peptide-MHC binding, purified MHC/direct/fluorescence; filed as Kd, often an IC50 or EC50 that approximates it; ≥ and ≤ were set here for values at or beyond the usual limits of such assays
[5] = biological target: HLA-A*02:03; assay: as above; conditions: source organism: Variola virus
[6] = biological target: HLA-A*02:01; assay: as above
[7] = biological target: HLA-A*69:01; assay: as above
[8] = biological target: HLA-A*31:01; assay: IEDB peptide-MHC binding, purified MHC/competitive/fluorescence; filed as Kd, often an IC50 or EC50 that approximates it; ≥ and ≤ were set here for values at or beyond the usual limits of such assays; conditions: source organism: Variola virus
[9] = biological target: HLA-A*23:01; assay: as above; conditions: source organism: Bacillus anthracis str. A0488
[10] = biological target: HLA-A*26:01; assay: as above
[11] = biological target: HLA-B*57:01; assay: as above
[12] = biological target: HLA-A*02:03; assay: as above; conditions: source organism: Bacillus anthracis str. A0488
[13] = biological target: HLA-B*46:01; assay: as above
[14] = biological target: HLA-A*29:02; assay: as above; conditions: source organism: Bacillus anthracis str. A0488
[15] = biological target: HLA-B*15:01; assay: as above
[16] = biological target: HLA-A*02:19; assay: as above
[17] = biological target: HLA-B*27:03; assay: as above
[18] = biological target: HLA-B*51:01; assay: as above
[19] = biological target: HLA-A*02:11; assay: as above
[20] = biological target: HLA-A*24:03; assay: as above; conditions: source organism: Bacillus anthracis str. A0488
[21] = biological target: HLA-B*39:01; assay: as above
[22] = biological target: HLA-B*18:01; assay: as above; conditions: source organism: Bacillus anthracis str. A0488
[23] = biological target: HLA-A*03:01; assay: as above
[24] = biological target: HLA-A*68:02; assay: as above
[25] = biological target: HLA-B*44:02; assay: IEDB peptide-MHC binding, purified MHC/direct/fluorescence; filed as Kd, often an IC50 or EC50 that approximates it; ≥ and ≤ were set here for values at or beyond the usual limits of such assays
[26] = biological target: HLA-B*40:01; assay: as above; conditions: source organism: Influenza A virus (A/Turkey/MO/24093/99(H1N2))
[27] = biological target: HLA-B*18:01; assay: as above; conditions: source organism: Influenza A virus (A/Turkey/MO/24093/99(H1N2))
[28] = biological target: HLA-B*15:42; assay: IEDB peptide-MHC binding, purified MHC/competitive/fluorescence; filed as Kd, often an IC50 or EC50 that approximates it; ≥ and ≤ were set here for values at or beyond the usual limits of such assays; conditions: source organism: Influenza A virus (A/Fort Monmouth/1/1947-mouse adapted(H1N1))
[29] = biological target: HLA-B*83:01; assay: as above; conditions: source organism: Influenza A virus (A/Fort Monmouth/1/1947-mouse adapted(H1N1))
[30] = biological target: HLA-B*45:06; assay: as above; conditions: source organism: Influenza A virus (A/Fort Monmouth/1/1947-mouse adapted(H1N1))
[31] = biological target: HLA-B*07:02; assay: as above
[32] = biological target: HLA-B*51:01; assay: IEDB peptide-MHC binding, purified MHC/direct/fluorescence; filed as Kd, often an IC50 or EC50 that approximates it; ≥ and ≤ were set here for values at or beyond the usual limits of such assays; conditions: source organism: Baboon gamma-herpesvirus
[33] = biological target: HLA-A*02:12; assay: IEDB peptide-MHC binding, purified MHC/competitive/fluorescence; filed as Kd, often an IC50 or EC50 that approximates it; ≥ and ≤ were set here for values at or beyond the usual limits of such assays; conditions: source organism: Entamoeba histolytica HM-1:IMSS
[34] = biological target: HLA-A*69:01; assay: as above; conditions: source organism: Entamoeba histolytica HM-1:IMSS
[35] = biological target: HLA-A*26:01; assay: IEDB peptide-MHC binding, purified MHC/direct/fluorescence; filed as Kd, often an IC50 or EC50 that approximates it; ≥ and ≤ were set here for values at or beyond the usual limits of such assays; conditions: source organism: Yersinia pestis
[36] = biological target: HLA-B*15:01; assay: as above; conditions: source organism: Yersinia pestis
[37] = biological target: HLA-A*01:01; assay: as above; conditions: source organism: Yersinia pestis
[38] = biological target: HLA-A*31:01; assay: as above; conditions: source organism: Yersinia pestis
[39] = biological target: HLA-B*58:01; assay: as above; conditions: source organism: Yersinia pestis
[40] = biological target: HLA-B*27:05; assay: as above; conditions: source organism: Yersinia pestis
[41] = biological target: HLA-A*11:01; assay: as above; conditions: source organism: Yersinia pestis
[42] = biological target: HLA-B*08:01; assay: as above; conditions: source organism: Yersinia pestis
[43] = biological target: HLA-B*35:01; assay: as above; conditions: source organism: Yersinia pestis
[44] = biological target: HLA-A*03:01; assay: as above; conditions: source organism: Yersinia pestis
[45] = biological target: HLA-B*07:02; assay: as above; conditions: source organism: Yersinia pestis
[46] = source organism: Coxiella burnetii RSA 493
[47] = source organism: Camelpox virus CMS
[48] = source organism: Bacillus anthracis str. A0488
[49] = source organism: Human immunodeficiency virus 1
[50] = source organism: Entamoeba histolytica HM-1:IMSS
[51] = source organism: Marburg virus - Musoke, Kenya, 1980
[52] = source organism: Yersinia pestis

Sequence: DAMENPLSL
Kd ([1]; source organism: Leishmania donovani): 0.625 µM

Sequence: FLFLYWPHY
Kd [2, 46]: 0.628 µM
Kd [3, 46]: 1.74 µM

Kd ([4]; source organism: Homo sapiens): 0.813 µM
Sequence: FYYNAFHWA

Sequence: HMIDKLFYV
Kd [5]: ≤ 0.001 µM
Kd [6, 47]: ≤ 0.001 µM
Kd [7, 47]: 0.002 µM
Kd ([1]; source organism: Variola virus): 0.787 µM
Kd [8]: 0.0215 µM

Sequence: KLWASFFQG
Kd [9]: ≥ 20 µM
Kd [10, 48]: ≥ 20 µM
Kd [11, 48]: ≥ 20 µM
Kd [12]: ≥ 20 µM
Kd [13, 48]: ≥ 20 µM
Kd [14]: ≥ 20 µM
Kd [15, 48]: ≥ 20 µM
Kd [16, 48]: ≥ 20 µM
Kd [17, 48]: ≥ 20 µM
Kd [2, 48]: 0.104 µM
Kd [18, 48]: ≥ 20 µM
Kd [19, 48]: 0.0025 µM
Kd [20]: ≥ 20 µM
Kd [21, 48]: ≥ 20 µM
Kd [22]: ≥ 20 µM
Kd [23, 48]: ≥ 20 µM

Sequence: LYNTVAVLY
Kd [4, 49]: ≥ 20 µM
Kd [24, 49]: ≥ 20 µM

Sequence: MQIRGFVYF
Kd ([4]; source organism: Influenza A virus (A/Fort Monmouth/1/1947-mouse adapted(H1N1))): ≥ 20 µM
Kd ([25]; source organism: Influenza A virus (A/Turkey/MO/24093/99(H1N2))): ≥ 20 µM
Kd [26]: ≥ 20 µM
Kd [27]: 0.119 µM
Kd [28]: ≥ 5 µM
Kd [29]: ≥ 5 µM
Kd [30]: ≥ 5 µM

Kd ([31]; source organism: Escherichia coli 536): ≥ 20 µM
Sequence: PPKYTPRPA

Sequence: VAYHFHEPL
Kd ([1]; source organism: Mycobacterium tuberculosis variant bovis BCG str. Pasteur 1173P2): ≤ 0.001 µM

Sequence: VPGSETMCY
Kd [32]: ≥ 20 µM
Kd ([31]; source organism: human gammaherpesvirus 4): ≥ 20 µM

Sequence: WAKLLKQKW
Kd [24, 50]: ≥ 20 µM
Kd [33]: ≥ 20 µM
Kd [10, 50]: ≥ 20 µM
Kd [11, 50]: 0.227 µM
Kd [13, 50]: ≥ 20 µM
Kd [15, 50]: ≥ 20 µM
Kd [16, 50]: ≥ 20 µM
Kd [17, 50]: ≥ 20 µM
Kd [2, 50]: ≥ 20 µM
Kd [18, 50]: ≥ 20 µM
Kd [34]: ≥ 20 µM
Kd [19, 50]: ≥ 20 µM
Kd [3, 50]: ≥ 20 µM
Kd [21, 50]: ≥ 20 µM
Kd [23, 50]: ≥ 20 µM

Sequence: WLDSVIQYL
Kd [6, 51]: 0.143 µM
Kd [7, 51]: 0.963 µM
Kd ([1]; source organism: Orthomarburgvirus marburgense): 0.24 µM

Sequence: YGIPFPGSL
Kd [35]: ≥ 20 µM
Kd [36]: ≥ 20 µM
Kd [37]: ≥ 20 µM
Kd [38]: ≥ 20 µM
Kd [39]: ≥ 20 µM
Kd [25, 52]: ≥ 20 µM
Kd [40]: ≥ 20 µM
Kd [6, 52]: 14.3 µM
Kd [41]: ≥ 20 µM
Kd [7, 52]: ≥ 20 µM
Kd ([1]; source organism: Yersinia pestis Nepal516): ≤ 0.001 µM
Kd [42]: ≥ 20 µM
Kd [43]: 0.12 µM
Kd [44]: ≥ 20 µM
Kd [45]: 9.76 µM
